Laboratory results: the supplement of paper PMC10899765

System: MCF10A
Test: percent viability (nuclei count relative to siNT); higher = more viable cells
Conditions: 20 nM; 72 h
Description: (§1)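 After 72 h, cells were fixed and stained with Hoechst and anti-fibrillarin, and nucleoli per nucleus were counted with CellProfiler. Values are plate-adjusted percent effect for the one-nucleolus and 5+ nucleoli phenotypes, normalised to siNT (0%) and to the positive controls siNOL11 or siKIF11 (100%), as the mean of biological triplicates. Percent viability is the nuclei count relative to siNT.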

| Sequence | percent viability [%] |
| --- | --- |
| UGUCCUCUAGGGCCUGCAGUCU [hsa-miR-3909] | 25.5 |
| UAUGGCACUGGUAGAAUUCACU [hsa-miR-183-5p] | 16.2 |
| AGCUUUUGGGAAUUCAGGUAGU [hsa-miR-3140-3p] | 17.7 |
| UGGCAGUGUCUUAGCUGGUUGU [hsa-miR-34a-5p] | 11.9 |
| AAAGGAGGAAAUAGGCAGGCCA [hsa-miR-3173-3p] | 17.5 |
| CAGGUCGUCUUGCAGGGCUUCU [hsa-miR-431-3p] | 35.3 |
| CGGCGGGGACGGCGAUUGGUC [hsa-miR-1908-5p] | 40.6 |
| AAAAGGCGGGAGAAGCCCCA [hsa-miR-4484] | 12 |
| AAGGAGCUUACAAUCUAGCUGGG [hsa-miR-708-5p] | 27.9 |
| CUCUCCCUCUUUACCCACUAG [hsa-miR-6867-3p] | 61.8 |
| AGGAGCAGUGCCGGCCAAGGCGCC [hsa-miR-6081] | 22.9 |
| UUUGCAGUAACAGGUGUGAGCA [hsa-miR-6516-5p] | 23.8 |
| UCUCUGGGCCUGUGUCUUAGGC [hsa-miR-330-5p] | 17.8 |
| AGAUCAGAAGGUGAUUGUGGCU [hsa-miR-383-5p] | 14.2 |
| UAGGAGCUCAACAGAUGCCUGUU [hsa-miR-3139] | 18.8 |
| CAAAGGUAUUUGUGGUUUUUG [hsa-miR-548m] | 39.4 |
| UGGCAAGGAAAGAAGAGGAUCA [hsa-miR-6809-5p] | 9.15 |
| AGAGCAGAAGGAUGAGAU [hsa-miR-4468] | 16.5 |
| AGUGUGGCUUUCUUAGAGC [hsa-miR-644a] | 35 |
| ACUGGGGAGCAGAAGGAGAACC [hsa-miR-4667-5p] | 9.07 |
| AAAGGCAUAAAACCAAGACA [hsa-miR-3910] | 11.9 |
| CCGUCGCCGCCACCCGAGCCG [hsa-miR-1181] | 128 |
| GAGGGCGGGUGGAGGAGGA [hsa-miR-3141] | 20.1 |
| AGAAAGGGUGGCAAUACCUCUU [hsa-miR-5681a] | 8.23 |
| CAUCUGGCAUCCGUCACACAGA [hsa-miR-3126-3p] | 9.11 |
| CUGGCGGCUGUGUCUUCACAG [hsa-miR-6770-3p] | 18.4 |
| UGCCUGUCUACACUUGCUGUGC [hsa-miR-214-5p] | 31.1 |

System: MCF10A
Test: one-nucleolus phenotype percent effect, hitpick validation (relative to siNT 0% and siNOL11 100%); higher = more cells with one nucleolus
Conditions: 20 nM; 72 h
Description: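 Primary screen hits (microRNA mimics) were re-picked and rescreened for nucleolar number in MCF10A cells (hitpick validation; percent effect relative to the siNT and siNOL11/siKIF11 controls). A secondary screen measured nucleolar rRNA biogenesis inhibition: after 72 h of transfection at 20 nM, cells were labelled 1 h with 1 mM 5-EU and nucleolar 5-EU signal was quantified, normalised to siNT (0%) and siPOLR1A (100%). Means are over n=5 (MCF10A) or n=2 (RPE-1, HeLa) biological replicates.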

| Sequence | one-nucleolus phenotype percent effect [%] |
| --- | --- |
| UAAGGCACGCGGUGAAUGCC [hsa-miR-124-3p] | 139 |
| CUGCCAAUUCCAUAGGUCACAG [hsa-miR-192-3p] | 137 |
| AAGGAGCUCACAGUCUAUUGAG [hsa-miR-28-5p] | 146 |
| AGAAGGCACUAUGAGAUUUAGA [hsa-miR-605-3p] | 154 |
| GUUCUCCCAACGUAAGCCCAGC [hsa-miR-629-3p] | -55.4 |
| CUCUUGAGGGAAGCACUUUCUGU [hsa-miR-526b-5p] | 81.9 |
| CUUAUGCAAGAUUCCCUUCUAC [hsa-miR-491-3p] | 118 |
| CAAUCAGCAAGUAUACUGCCCU [hsa-miR-34a-3p] | 127 |
| AGGCGGAGACUUGGGCAAUUG [hsa-miR-25-5p] | 182 |
| ACCUUGGCUCUAGACUGCUUACU [hsa-miR-212-5p] | -36.9 |
| AGUUUUGCAGGUUUGCAUCCAGC [hsa-miR-19b-1-5p] | 196 |
| GGCCAGCCACCAGGAGGGCUG [hsa-miR-3194-5p] | 199 |
| ACUCGGCGUGGCGUCGGUCGUG [hsa-miR-1307-3p] | 112 |
| UGGUUCUAGACUUGCCAACUA [hsa-miR-182-3p] | 165 |
| UGAAGGUCUACUGUGUGCCAGG [hsa-miR-493-3p] | 126 |
| UGUCCUCUAGGGCCUGCAGUCU [hsa-miR-3909] | 196 |
| UAUGGCACUGGUAGAAUUCACU [hsa-miR-183-5p] | 101 |
| AGCUUUUGGGAAUUCAGGUAGU [hsa-miR-3140-3p] | 159 |
| UGGCAGUGUCUUAGCUGGUUGU [hsa-miR-34a-5p] | 28.9 |
| AAAGGAGGAAAUAGGCAGGCCA [hsa-miR-3173-3p] | 84.3 |
| CAGGUCGUCUUGCAGGGCUUCU [hsa-miR-431-3p] | 182 |

| Sequence | one-nucleolus phenotype percent effect [%] |
| --- | --- |
| CGGCGGGGACGGCGAUUGGUC [hsa-miR-1908-5p] | 128 |
| AAAAGGCGGGAGAAGCCCCA [hsa-miR-4484] | 199 |
| AAGGAGCUUACAAUCUAGCUGGG [hsa-miR-708-5p] | 187 |
| CUCUCCCUCUUUACCCACUAG [hsa-miR-6867-3p] | -40.4 |
| AGGAGCAGUGCCGGCCAAGGCGCC [hsa-miR-6081] | 152 |
| UUUGCAGUAACAGGUGUGAGCA [hsa-miR-6516-5p] | 142 |
| UCUCUGGGCCUGUGUCUUAGGC [hsa-miR-330-5p] | 99.9 |
| AGAUCAGAAGGUGAUUGUGGCU [hsa-miR-383-5p] | 125 |
| UAGGAGCUCAACAGAUGCCUGUU [hsa-miR-3139] | 181 |
| CAAAGGUAUUUGUGGUUUUUG [hsa-miR-548m] | 130 |
| UGGCAAGGAAAGAAGAGGAUCA [hsa-miR-6809-5p] | 207 |
| AGAGCAGAAGGAUGAGAU [hsa-miR-4468] | 109 |
| AGUGUGGCUUUCUUAGAGC [hsa-miR-644a] | 170 |
| ACUGGGGAGCAGAAGGAGAACC [hsa-miR-4667-5p] | 107 |
| AAAGGCAUAAAACCAAGACA [hsa-miR-3910] | 167 |
| CCGUCGCCGCCACCCGAGCCG [hsa-miR-1181] | -55.6 |
| GAGGGCGGGUGGAGGAGGA [hsa-miR-3141] | 129 |
| AGAAAGGGUGGCAAUACCUCUU [hsa-miR-5681a] | 165 |
| CAUCUGGCAUCCGUCACACAGA [hsa-miR-3126-3p] | 105 |
| CUGGCGGCUGUGUCUUCACAG [hsa-miR-6770-3p] | -1.66 |
| UGCCUGUCUACACUUGCUGUGC [hsa-miR-214-5p] | 122 |

System: MCF10A
Test: one-nucleolus phenotype percent effect (relative to siNT 0% and siNOL11 100%); higher = more cells with one nucleolus (ribosome biogenesis inhibition)
Conditions: 20 nM; 72 h
Description: as §1

| Sequence | one-nucleolus phenotype percent effect [%] |
| --- | --- |
| UAAGGCACGCGGUGAAUGCC [hsa-miR-124-3p] | 70.4 |
| CUGCCAAUUCCAUAGGUCACAG [hsa-miR-192-3p] | 70.5 |
| AAGGAGCUCACAGUCUAUUGAG [hsa-miR-28-5p] | 69.4 |
| AGAAGGCACUAUGAGAUUUAGA [hsa-miR-605-3p] | 66.4 |
| GUUCUCCCAACGUAAGCCCAGC [hsa-miR-629-3p] | -34.6 |
| CUCUUGAGGGAAGCACUUUCUGU [hsa-miR-526b-5p] | 71.3 |
| CUUAUGCAAGAUUCCCUUCUAC [hsa-miR-491-3p] | 73.6 |
